One block for each binder: values may come before it.
What was measured:
[1] = molecular target: T1, human fibroblast activation protein (huFAP) (human, UniProt Q12884 1-760); assay: flow cytometry on NIH/3T3-huFAP clone 19 cells, PE-labelled anti-human IgG Fcgamma F(ab')2 secondary, MFI baseline corrected
T1 construct: expressed on transfected NIH/3T3-huFAP clone 19 cells; also called human FAP
Experimental: (§1) NIH/3T3-huFAP clone 19 and NIH/3T3-mFAP clone 26 were generated by the transfection of the mouse embryonic fibroblast NIH/3T3 cell line (ATCC CRL-1658) with the expression vector pETR4921 to express under 1.5 μg/mL Puromycin selection huFAP or mFAP, respectively.
NIH/3T3-huFAP, NIH/3T3-mFAP or NIH/3T3-wt cells were cultured with 1× Dulbecco's Modified Eagle's Medium (DMEM) (Gibco, Cat. No. 42430-025) supplemented with 10% Fetal Bovine Serum (FBS) (life technologies, Cat. No. 16140, Lot No. 1797306A). For the NIH/3T3-huFAP and NIH/3T3-mFAP cells 1.5 μg/mL Puromycin (Gibco, Cat. No. A11138-03) was added to the medium for selection of FAP-expressing cells. NIH/3T3 cells were removed from the plate by using enzyme-free Cell Dissociation Buffer (Gibco, Cat. No. 13151014). 0.3×10⁵ NIH/3T3-huFAP clone 19, NIH/3T3-mFAP clone 26 or NIH/3T3-wt were added in 200 μl of 1×DMEM 10% FBS to each well of a round-bottom 96-well plate (Greiner Bio-One, CELLSTAR®, Cat. No. 650185). Plates were centrifuged 5 minutes at 1700 rpm and supernatants were flicked off. Cells were washed once with 200 μL of 4° C. cold FACS buffer (eBioscience, Cat. No. 00-4222-26). All samples were resuspended in 50 μL/well of 4° C. cold FACS buffer containing the bispecific antigen binding molecules (primary antibody) or isotype control antibody DP47 at the indicated range of concentrations (in duplicates) and incubated for 120 minutes at 4° C. Afterwards the cells were washed three times with 200 μL 4° C. cold FACS buffer. Cells were further stained with 25 μL/well of 4° C. cold secondary antibody solution (1:50 dilution of secondary antibody) containing R-Phycoerythrin (PE) conjugated AffiniPure F(ab′)₂ Fragment Goat Anti-Human IgG, Fcγ Fragment Specific (Jackson ImmunoResearch, Cat. No. 109-116-098) and incubated for 60 minutes at 4° C. in the dark. Cells were washed with 200 μl FACS buffer and resuspended in 85 μL/well FACS-buffer containing 0.2 μg/mL DAPI (Roche, Cat. No. 10236276001) and acquired the same day using 5-laser LSR-Fortessa (BD Bioscience with DIVA software). […]

[2] = molecular target: T1, human fibroblast activation protein …; assay: flow cytometry, NIH/3T3-huFAP clone 19 cells, PE anti-human Fc F(ab')2
Experimental: as §1
(§2) NIH/3T3-huFAP, NIH/3T3-mFAP or NIH/3T3-wt cells were cultured with 1× Dulbecco's Modified Eagle's Medium (DMEM) (Gibco, Cat. No. 42430-025) supplemented with 10% Fetal Bovine Serum (FBS) (life technologies, Cat. No. 16140, Lot No. 1797306A). For the NIH/3T3-huFAP and NIH/3T3-mFAP cells 1.5 μg/mL Puromycin (Gibco, Cat. No. A11138-03) was added to the medium for selection of FAP-expressing cells. NIH/3T3 cells were removed from the plate by using enzyme-free Cell Dissociation Buffer (Gibco, Cat. No. 13151014). 0.3×10⁵ NIH/3T3-huFAP clone 19, NIH/3T3-mFAP clone 26 or NIH/3T3-wt were added in 200 μl of 1×DMEM 10% FBS to each well of a round-bottom 96-well plate (Greiner Bio-One, CELLSTAR®, Cat. No. 650185). Plates were centrifuged 5 minutes at 1700 rpm and supernatants were flicked off. Cells were washed once with 200 μL of 4° C. cold FACS buffer (eBioscience, Cat. No. 00-4222-26). All samples were resuspended in 50 μL/well of 4° C. cold FACS buffer containing the bispecific antigen binding molecules (primary antibody) or isotype control antibody DP47 at the indicated range of concentrations (in duplicates) and incubated for 120 minutes at 4° C. Afterwards the cells were washed three times with 200 μL 4° C. cold FACS buffer. Cells were further stained with 25 μL/well of 4° C. cold secondary antibody solution (1:50 dilution of secondary antibody) containing R-Phycoerythrin (PE) conjugated AffiniPure F(ab′)₂ Fragment Goat Anti-Human IgG, Fcγ Fragment Specific (Jackson ImmunoResearch, Cat. No. 109-116-098) and incubated for 60 minutes at 4° C. in the dark. Cells were washed with 200 μl FACS buffer and resuspended in 85 μL/well FACS-buffer containing 0.2 μg/mL DAPI (Roche, Cat. No. 10236276001) and acquired the same day using 5-laser LSR-Fortessa (BD Bioscience with DIVA software). Data analysis was performed using the FlowJo version 10 software (FlowJo LLC).

[3] = molecular target: T2, mouse fibroblast activation protein (mFAP) (mouse, UniProt P97321 1-761); assay: flow cytometry on NIH/3T3-mFAP cells (3T3_mFAP), PE-labelled anti-human IgG Fcgamma F(ab')2 secondary, MFI baseline corrected
T2 construct: expressed on transfected NIH/3T3-mFAP clone 26 cells; also called murine FAP; mouse FAP
Experimental: as §1, §2

human CD40 = molecular target: T3, human CD40 (human, UniProt P25942 21-277); assay: flow cytometry, Daudi cells, PE anti-human Fc F(ab')2
T3 construct: on Daudi cells, Raji cells, human B cells or HEK-Blue CD40L cells; also called hu CD40; CD40 receptor
Experimental: The binding to cell surface CD40 was tested using Daudi cells, a human B lymphoblast cell line with high expression levels of human CD40 (ATCC CCL-213). Daudi cells were cultured with 1× Dulbecco's Modified Eagle's Medium (DMEM) (Gibco, Cat. No. 42430-025) supplemented with 10% Fetal Bovine Serum (FBS) (life technologies, Cat. No. 16140, Lot No. 1797306A). 0.3×10⁵ Daudi cells were added in 200 μl of 1×DMEM with 10% FBS to each well of a round-bottom 96-well plate (Greiner Bio-One, CELLSTAR®, Cat. No. 650185). Plates were centrifuged 5 minutes at 1700 rpm and supernatants were flicked off. Cells were washed once with 200 μL of 4° C. cold FACS buffer (eBioscience, Cat. No. 00-4222-26). All samples were resuspended in 50 μL/well of 4° C. cold FACS buffer containing the bispecific antigen binding molecules (primary antibody) or isotype control antibody DP47 at the indicated range of concentrations (in duplicates) and incubated for 120 minutes at 4° C. Afterwards the cells were washed three times with 200 μL 4° C. cold FACS buffer. Cells were further stained with 25 μL/well of 4° C. cold secondary antibody solution (1:50 dilution of secondary antibody) containing R-Phycoerythrin (PE) conjugated AffiniPure F(ab′)₂ Fragment Goat Anti-Human IgG, Fcγ Fragment Specific (Jackson ImmunoResearch, Cat. No. 109-116-098) and incubated for 60 minutes at 4° C. in the dark. Cells were washed with 200 μl FACS buffer and resuspended in 85 μL/well FACS-buffer containing 0.2 μg/mL DAPI (Roche, Cat. No. 10236276001) and acquired the same day using a 5-laser LSR-Fortessa (BD Bioscience with DIVA software). Data analysis was performed using the FlowJo version 10 software (FlowJo LLC).

T2 sequence (P97321 whole entry): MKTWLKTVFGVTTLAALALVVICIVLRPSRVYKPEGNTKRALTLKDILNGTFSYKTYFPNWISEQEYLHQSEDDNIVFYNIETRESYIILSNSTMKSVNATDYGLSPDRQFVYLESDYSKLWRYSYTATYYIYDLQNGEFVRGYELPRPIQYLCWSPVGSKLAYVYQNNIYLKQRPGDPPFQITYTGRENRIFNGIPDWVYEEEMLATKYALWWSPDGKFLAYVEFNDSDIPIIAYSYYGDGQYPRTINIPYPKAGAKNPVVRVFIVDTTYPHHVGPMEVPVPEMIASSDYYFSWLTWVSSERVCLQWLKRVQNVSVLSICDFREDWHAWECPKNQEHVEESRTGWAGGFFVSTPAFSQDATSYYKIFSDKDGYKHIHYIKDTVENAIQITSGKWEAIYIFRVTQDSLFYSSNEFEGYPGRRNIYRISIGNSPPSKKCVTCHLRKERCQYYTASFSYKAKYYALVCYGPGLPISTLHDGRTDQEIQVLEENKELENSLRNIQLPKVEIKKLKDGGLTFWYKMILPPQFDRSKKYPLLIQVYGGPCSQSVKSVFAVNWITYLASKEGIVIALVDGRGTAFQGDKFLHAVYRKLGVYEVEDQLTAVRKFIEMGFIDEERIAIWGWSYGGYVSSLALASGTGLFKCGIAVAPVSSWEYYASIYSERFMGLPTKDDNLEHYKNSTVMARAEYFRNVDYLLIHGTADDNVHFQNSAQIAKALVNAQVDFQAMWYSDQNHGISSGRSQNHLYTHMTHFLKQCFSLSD
T3 sequence (P25942 21-277 limits assumed): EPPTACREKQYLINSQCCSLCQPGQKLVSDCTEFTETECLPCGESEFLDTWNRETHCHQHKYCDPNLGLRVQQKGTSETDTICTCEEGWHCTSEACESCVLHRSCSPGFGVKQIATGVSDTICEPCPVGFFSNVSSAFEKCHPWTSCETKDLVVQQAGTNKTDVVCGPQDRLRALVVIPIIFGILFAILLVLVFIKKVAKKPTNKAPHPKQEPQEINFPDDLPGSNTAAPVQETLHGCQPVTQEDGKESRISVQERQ

- EC50 (read off the curve) [1]: ~4 nM
- EC50 [2]: 3.64 nM
- EC50 (read off the curve) [3]: ~4 nM
B1: P1AD4455 CD40 × FAP (28H1) (4 + 2) (bispecific antibody, human IgG1, kappa, L234A L235A)
heavy: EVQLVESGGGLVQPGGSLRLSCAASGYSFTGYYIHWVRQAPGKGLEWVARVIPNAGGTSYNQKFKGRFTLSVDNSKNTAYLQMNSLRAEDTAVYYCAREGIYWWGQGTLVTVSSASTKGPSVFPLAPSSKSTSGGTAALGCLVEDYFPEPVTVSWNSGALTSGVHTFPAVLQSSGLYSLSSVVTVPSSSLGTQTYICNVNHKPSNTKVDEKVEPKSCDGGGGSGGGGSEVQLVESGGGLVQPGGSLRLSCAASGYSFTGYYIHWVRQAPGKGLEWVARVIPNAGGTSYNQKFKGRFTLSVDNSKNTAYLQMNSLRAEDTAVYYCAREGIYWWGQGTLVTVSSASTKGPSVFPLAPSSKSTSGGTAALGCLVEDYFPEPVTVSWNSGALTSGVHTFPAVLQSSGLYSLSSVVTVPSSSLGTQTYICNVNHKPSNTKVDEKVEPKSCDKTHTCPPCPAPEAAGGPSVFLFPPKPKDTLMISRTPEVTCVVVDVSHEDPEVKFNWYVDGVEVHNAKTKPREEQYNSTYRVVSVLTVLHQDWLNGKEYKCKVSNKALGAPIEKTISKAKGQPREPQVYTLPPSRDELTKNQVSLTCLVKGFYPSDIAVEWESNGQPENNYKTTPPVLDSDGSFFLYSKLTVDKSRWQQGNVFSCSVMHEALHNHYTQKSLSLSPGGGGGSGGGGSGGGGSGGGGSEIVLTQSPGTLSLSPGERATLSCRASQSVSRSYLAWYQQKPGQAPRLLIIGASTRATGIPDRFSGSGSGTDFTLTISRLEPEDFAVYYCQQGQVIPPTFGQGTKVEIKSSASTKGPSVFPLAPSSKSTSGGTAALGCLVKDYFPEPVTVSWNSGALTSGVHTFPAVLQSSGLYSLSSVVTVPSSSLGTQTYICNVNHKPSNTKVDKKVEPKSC
light 1: DIQMTQSPSSLSASVGDRVTITCRSSQSLVHSNGNTFLHWYQQKPGKAPKLLIYTVSNRFSGVPSRFSGSGSGTDFTLTISSLQPEDFATYFCSQTTHVPWTFGQGTKVEIKRTVAAPSVFIFPPSDRKLKSGTASVVCLLNNFYPREAKVQWKVDNALQSGNSQESVTEQDSKDSTYSLSSTLTLSKADYEKHKVYACEVTHQGLSSPVTKSFNRGEC
light 2: EVQLLESGGGLVQPGGSLRLSCAASGFTFSSHAMSWVRQAPGKGLEWVSAIWASGEQYYADSVKGRFTISRDNSKNTLYLQMNSLRAEDTAVYYCAKGWLGNFDYWGQGTLVTVSSASVAAPSVFIFPPSDEQLKSGTASVVCLLNNFYPREAKVQWKVDNALQSGNSQESVTEQDSKDSTYSLSSTLTLSKADYEKHKVYACEVTHQGLSSPVTKSFNRGEC
notes: tetravalent for CD40, bivalent for FAP; also called CD40 × FAP 4 + 2; huCD40-28H1

- EC50 [2]: 3.65 nM
- EC50 (read off the curve) [3]: ~4 nM
B2: P1AA9663 CD40 × FAP (28H1) (2 + 2) (bispecific antibody, human IgG1, kappa, L234A L235A)
heavy: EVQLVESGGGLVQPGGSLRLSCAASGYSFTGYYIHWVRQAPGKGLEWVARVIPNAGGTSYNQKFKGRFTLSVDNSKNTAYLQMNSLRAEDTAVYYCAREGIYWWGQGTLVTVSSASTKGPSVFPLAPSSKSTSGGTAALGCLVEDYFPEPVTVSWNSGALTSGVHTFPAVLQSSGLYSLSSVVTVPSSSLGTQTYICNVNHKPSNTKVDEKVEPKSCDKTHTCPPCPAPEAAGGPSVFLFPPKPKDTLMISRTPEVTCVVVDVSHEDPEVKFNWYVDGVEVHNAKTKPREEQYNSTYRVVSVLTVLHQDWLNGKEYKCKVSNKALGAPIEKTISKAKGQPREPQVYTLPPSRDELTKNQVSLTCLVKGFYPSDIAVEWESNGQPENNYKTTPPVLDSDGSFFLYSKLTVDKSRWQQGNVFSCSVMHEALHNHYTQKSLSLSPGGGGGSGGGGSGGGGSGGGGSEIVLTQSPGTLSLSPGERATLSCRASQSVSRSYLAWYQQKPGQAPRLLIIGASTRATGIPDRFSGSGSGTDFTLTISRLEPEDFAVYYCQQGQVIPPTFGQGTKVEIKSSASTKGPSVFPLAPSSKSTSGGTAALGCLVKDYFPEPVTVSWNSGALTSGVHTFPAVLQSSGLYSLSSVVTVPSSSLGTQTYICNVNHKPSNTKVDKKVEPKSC
light 1: B1 light 1
light 2: B1 light 2
notes: bivalent for CD40 and for FAP; also called CD40 × FAP 2 + 2; huCD40-28H1

- binding result [1]: no binding (tested: 500 nM)
- binding result [3]: no binding (tested: 500 nM)
- EC50 (human CD40): 0.036 nM
B3: P1AD4465 CD40 × DP47 (4 + 2) (bispecific antibody)
heavy: not shown
light 1: B1 light 1
light 2: not shown
notes: also called huCD40-DP47
